From US20150140001A1 (Scripps Research, published 2015)
Where a chain is given by its changes, count along the chain named.

T1: recombinant mouse clec14a CTLD Fc fusion protein (mCTLD-Fc) (mouse; human, UniProt Q8VCP9 31-172)
T1 construct: also called mouse CTLD-Fc; not shown: hinge and CH2-CH3 domain of human IgG1, encoded 3' of the cloning site of the modified pCEP4 vector
T1 sequence: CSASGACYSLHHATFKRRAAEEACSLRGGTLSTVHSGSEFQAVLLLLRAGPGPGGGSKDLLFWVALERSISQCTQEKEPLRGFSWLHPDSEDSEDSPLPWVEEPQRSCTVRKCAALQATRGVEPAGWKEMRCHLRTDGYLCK

T2: fusion protein comprising an amino acid fragment from 1st amino acid to 42nd amino acid in hCTLD (human, UniProt Q86T13 31-72)
T2 construct: also called N-terminal fragment of hCTLD-Fc (1-42); not shown: Fc
T2 chain: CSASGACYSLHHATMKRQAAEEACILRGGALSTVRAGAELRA

T3: recombinant human clec14a CTLD Fc fusion protein (hCTLD-Fc) (human, UniProt Q86T13 31-172)
T3 construct: also called human CTLD-Fc; wtCTLD-Fc; not shown: hinge and CH2-CH3 domain of human IgG1, encoded 3' of the cloning site of the modified pCEP4 vector
T3 sequence: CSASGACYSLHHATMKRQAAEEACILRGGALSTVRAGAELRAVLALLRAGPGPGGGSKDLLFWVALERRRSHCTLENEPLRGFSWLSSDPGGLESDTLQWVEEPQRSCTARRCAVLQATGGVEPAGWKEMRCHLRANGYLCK

B1: clec14a-CTLD IgG clone 1 (antibody, V domains shown)
VH: EVQLLESGGGLVQPGGSLRLSCAASGFTFSGYDMSWVRQAPGKGLEWVSGIYPDGGNTYYADSVKGRFTISRDNSKNTLYLQMNSLRAEDTAVYYCARGATWWVLGPFDYWGQGTLVTVSS
VL: QSVLTQPPSASGTPGQRVTISCTGSSSNIGNNSVTWYQQLPGTAPKLLIYADSHRPSGVPDRFSGSKSGTSASLAISGLRSEDEADYYCGAWDDSLSGYVFGGGTKLTVL
notes: scFv converted to IgG; Lambda light chain, detected with anti-human lambda antibody
B2: clec14a-CTLD IgG clone 3 (antibody, V domains shown)
VH: EVQLLESGGGLVQPGGSLRLSCAASGFTFSDYYMSWVRQAPGKGLEWVSLISYDGGSTYYADSVKGRFTISRDNSKNTLYLQMNSLRAEDTAVYYCARSNDWFDYWGQGTLVTVSS
VL: B1 VL with T23S, N31S, S33N, T35Y, A51Y, H54Q, G98A
notes: Lambda light chain
B3: scFv clone 1 (phage-displayed) (scFv, V domains shown)
VH: B1 VH
VL: B1 VL
B4: scFv clone 3 (phage-displayed) (scFv, V domains shown)
VH: B2 VH
VL: B1 VL with T23S, N31S, S33N, T35Y, A51Y, H54Q, G98A
B5: scFv clone 2 (phage-displayed) (scFv, V domains shown)
VH: EVQLLESGGGLVQPGGSLRLSCAASGFTFSSYDMSWVRQAPGKGLEWVSVISPDSSSTYYADSVKGRFTISRDNSKNTLHLQMNSLRAEDTAVYYCARHTGWQSRPHTYYDYGMDVWGQGTLVTVSS
VL: B1 VL with T23S, S33A, A51S, S53N, A91T, D94A
B6: clec14a-CTLD IgG clone 2 (antibody, V domains shown)
VH: B5 VH
VL: B1 VL with T23S, S33A, A51S, S53N, A91T, D94A
notes: Lambda light chain

Experiments:
[1] = molecular target: T1, recombinant mouse clec14a CTLD Fc …; assay: ELISA, coated mCTLD-Fc (25 nM), 67 nM IgG
Experimental: (§1) 25 nM recombinant hCTLD-Fc, mCTLD-Fc, or Fc fragment of IgG1 in PBS was added to the 96-wells of a microtiter plate. After incubation overnight at 37° C., plates were washed three times with PBS containing 0.05% (v/v) Tween 20 (PBST), and incubated with 3% (w/v) BSA in PBST for 1 hr at 37° C. Plates were then incubated with 67 nM clec14a-CTLD IgG in PBST containing 3% (w/v) BSA for 3 hr at 37° C. Plates were washed twice with PBST and incubated with horseradish […] (HRP)-conjugated anti-human lambda light chain antibody (Bethyl Laboratories, Montgomery, Tex., USA) diluted 1:1000) in PBST containing 3% (w/v) BSA, for 1 hr at 37° C.

[2] = molecular target: T2, fusion protein comprising an amino acid …; assay: epitope mapping ELISA, coated fragment-Fc 10 µg/ml, IgG 10 µg/ml
Experimental: Each of 10 μg/ml hCTLD-Fc, Fc, or N-terminal or C-terminal fragments of hCTLD-Fc in PBS was added to 96-well plates. Plates were incubated overnight at 37° C., washed three times with PBS containing 0.05% (v/v) Tween 20 (PBST), and incubated with 3% (w/v) BSA in PBST for 1 hr at 37° C. Plates were incubated with 10 μg/ml clec14a-CTLD IgG in PBST containing 3% (w/v) BSA for 2 hr at 37° C. Following two times washings with PBST, horseradish […] (HRP)-conjugated anti-human lambda light chain antibody (1:1000; Bethyl Laboratories, TX, USA) in PBST containing 3% (w/v) BSA was incubated for 1 hr at 37° C.
For fine mapping of epitope, specificity of clec14a-CTLD IgGs to Clec14awtCTLD and the fragments of hCTLD-Fc (FIG. 10a) were tested by ELISA.

[3] = molecular target: T3, recombinant human clec14a CTLD Fc …; assay: ELISA, coated hCTLD-Fc (25 nM), 67 nM IgG
Experimental: as §1

[4] = molecular target: T1, recombinant mouse clec14a CTLD Fc …; assay: phage enzyme immunoassay (phage ELISA) on mCTLD-Fc
Experimental: (§2) A human synthetic scFv antibody library was precleared of Fc binders and screened by alternative biopanning with recombinant hCTLD-Fc or mCTLD-Fc. b-d. Ninety-six phage clones (1-96) displaying scFv were randomly selected and the supernatants were analyzed by phage ELISA. Reactivity of the selected scFv clones to human and mouse CTLDs was assayed by measuring absorbance at 450 nm. Arrows indicate scFv clones reactive to hCTLD-Fc (▪, black) and mCTLD-Fc (▪, grey), and not reactive to Fc (□). BSA ( ) served as a background control.
(§3) Three rounds of biopanning were carried out with immunotubes (Immuno™ tube maxisorp, Nunc, Rochester, N.Y., USA) or magnetic beads (Dynabeads M-270 epoxy, Invitrogen) coated with 4 μg recombinant human (hCTLD-Fc) or mouse (mCTLD-Fc) fusion protein to select clones with cross-species reactivity, as described previously (Barbas C F. Phage display: a laboratory manual. Cold Spring Harbor, N.Y.: Cold Spring Harbor Laboratory Press; 2001; Vestweber D. Lymphocyte trafficking through blood and lymphatic vessels: more than just selectins, chemokines and integrins. European Journal of Immunology. 2003; 33(5):1361-4). Ninety-six phage clones were randomly selected from colonies grown on output plates and tested for reactivity to human and mouse CTLDs by phage enzyme immunoassay. DNA of the final scFv clones was sequenced and classified as four scFv clones identified having different complementarity determining region sequences.

[5] = molecular target: T3, recombinant human clec14a CTLD Fc …; assay: phage enzyme immunoassay (phage ELISA) on hCTLD-Fc
Experimental: as §2
as §3, with “DNA of the final scFv clones was sequenced and classified as four scFv clones identified having different complementarity determining region sequences.” left out

Binder | binding result [1] | binding result [2] | binding result [4] | other results
B1 | binds | binds |  | 
B2 | binds |  |  | binding result [3]: binds
B3 |  |  | binds | 
B4 |  |  | binds | binding result [5]: binds
B5 |  |  | binds | 
B6 | binds | binds |  | 
